Experimental data: paper PMC314469, “Protein Interaction Networks by Proteome Peptide Scanning” (PLoS Biology, 2004)

T1: Boi1 SH3 (BOI1_YEAST), P38041
T1 chain: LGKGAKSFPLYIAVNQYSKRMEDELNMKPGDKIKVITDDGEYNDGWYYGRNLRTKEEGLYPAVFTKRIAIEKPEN

T2: Boi2 SH3 (BOI2_YEAST), P39969
T2 chain: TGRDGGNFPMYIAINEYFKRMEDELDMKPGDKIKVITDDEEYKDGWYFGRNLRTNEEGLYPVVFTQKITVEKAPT

T3: Rvs167 SH3 (RV167_YEAST), P39743
T3 chain: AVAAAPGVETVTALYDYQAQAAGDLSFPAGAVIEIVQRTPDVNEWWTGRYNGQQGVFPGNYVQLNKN

T4: Yfr024 SH3 (LSB3_YEAST), P43603
T4 chain: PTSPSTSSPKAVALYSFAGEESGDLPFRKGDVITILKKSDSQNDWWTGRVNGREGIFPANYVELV

T5: Yhr016c SH3 (YSC84_YEAST), P32793
T5 chain: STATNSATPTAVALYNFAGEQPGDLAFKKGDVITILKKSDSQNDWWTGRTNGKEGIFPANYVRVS

B1: YOR299W 430-443 (peptide)
chain: NSSPMSPLKEKYVL
B2: YPL159C 186-199 (peptide)
chain: NLKPFHPPKEKSMN
B3: YDR061W 22-35 (peptide)
chain: NSPPVYPKRIRHFE
B4: YNL176C 548-561 (peptide)
chain: NPPPVPPPRNVTAM
B5: YOR042W 296-309 (peptide)
chain: NSRPQQPERRRFNS
B6: YCL063W 173-186 (peptide)
chain: NSLPSSPKKQPARN
B7: YDR181C 326-339 (peptide)
chain: NKVPTNPKKFKKAP
B8: YKR004C 249-262 (peptide)
chain: NNTPIVPEKFSNDL
B9: YKL208W 152-165 (peptide)
chain: NSMPNVPVRLKLHT
B10: YML075C 1024-1037 (peptide)
chain: NRKPAEPTKPNNLD
B11: YNL144C 502-515 (peptide)
chain: NSNPIDPLRSDRSV

How the values were obtained:
Experiment in all cases: SPOT array
[1] = molecular target: T1, Boi1 SH3 (BOI1_YEAST), P38041
[2] = molecular target: T2, Boi2 SH3 (BOI2_YEAST), P39969
[3] = molecular target: T3, Rvs167 SH3 (RV167_YEAST), P39743
[4] = molecular target: T4, Yfr024 SH3 (LSB3_YEAST), P43603
[5] = molecular target: T5, Yhr016c SH3 (YSC84_YEAST), P32793

Binder | normalised SPOT signal, Boehringer light units (BLU); mean over the file's lines of this peptide [1] | normalised SPOT signal, Boehringer light units (BLU); mean over the file's lines of this peptide [2] | normalised SPOT signal, Boehringer light units (BLU); mean over the file's lines of this peptide [3] | normalised SPOT signal, Boehringer light units (BLU); mean over the file's lines of this peptide [4] | normalised SPOT signal, Boehringer light units (BLU); mean over the file's lines of this peptide [5]
B1 | 42.6 | 65.1 | 69.2 | 282 | 442
B2 | 109 | 72.2 | 128 | 417 | 770
B3 | 8630 | 3110 | 3590 | 23100 | 22100
B4 | 180 | 42.3 | 1190 | 14200 | 12200
B5 | 7150 | 2470 | 3880 | 40900 | 14500
B6 | 57.1 | 31.8 | 211 | 331 | 199
B7 | 126 | 70.3 | 20.2 | 178 | 210
B8 | 69.3 | 27.9 | 3.8 | 194 | 272
B9 | 5300 | 2750 | 2480 | 20400 | 11000
B10 | 51.4 | 96.2 | 91.3 | 292 | 234
B11 | 274 | 45.3 | 22.8 | 301 | 67.7
